This data set has as its system Cc1cc(=O)oc2cc(NC(=O)[C@H](CCCNC(=N)N)NC(=O)[C@H](Cc3ccccc3)NC(=O)OCc3ccccc3)ccc12. Kind of data set: purified protein. The settings on record: pH 6.0 citrate-phosphate, 25°C, 3 nM enzyme.

The Km is the concentration of substrate that gives half-maximal velocity. With SmCL3 (Schistosoma mansoni), the Km worked out at 20.2 µM.
